Experimental data: the supplement of paper PMC6757056
± gives the standard deviation of the averaged measurements.

B1: library; a variant is named by its letters at N, in order (parent)
chain: GCUGUCACCGGAAUACCAGCAUCGUCUUGAUGCCCUUGGAAGUCCGGUCUGAUGAGUCCNNNNNGGACGAAACAGC

Tests used:
theophylline [1] = variants of: B1; assay: FACS-Seq fitted mean relative fluorescence mCherry/BFP without ligand (log10 relative fluorescence); higher = higher reporter protein expression; conditions: HEK293T, ligand present: no
Outline: (§1)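 An mCherry reporter containing the ribozyme switch and an EF1α-BFP marker were introduced by lentivirus into HEK293T libraries. Cells were enriched, incubated 48 h with or without ligand, sorted into 6 bins by mCherry/BFP, and bin genomic DNA was PCR-amplified, barcoded and sequenced on MiSeq. Fluorescence represents the normalized fitted normal mean of the bin counts. Fitting was done on log10(mCherry/BFP), scaling to five spiked-in control ribozymes.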

theophylline [2] = variants of: B1; assay: normalized RNA/DNA level with ligand (relative to sTRSVctl = 100) (log10 (% of sTRSVctl)); higher = less ribozyme self-cleavage, higher mRNA level; conditions: ligand concentration (+) RNA-Seq: 5 mM, HEK293T, reporter: mCherry (pCS4076), ligand present: yes
Outline: (§2)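 Library plasmids encoding reporter-linked ribozyme switches (mCherry, or eGFP for some folinic acid experiments) were transfected into HEK293T at 4 µg per 6-well well. Ligand, when used, was added 1 h before transfection. Total RNA was extracted with EDTA 72 h later, then reverse-transcribed, amplified, barcoded and sequenced. RNA level was RNA reads over DNA reads, divided by a spiked-in non-cleaving control (or the top 25 sequences), ×100, log10; only sequences with ≥100 DNA reads were kept.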

theophylline [3] = variants of: B1; assay: normalized RNA/DNA level without ligand (relative to sTRSVctl = 100) (log10 (% of sTRSVctl)); higher = less ribozyme self-cleavage, higher mRNA level; conditions: HEK293T, reporter: mCherry (pCS4076), ligand present: no
Outline: as §2

theophylline [4] = variants of: B1; assay: FACS-Seq fitted mean relative fluorescence mCherry/BFP with ligand (log10 relative fluorescence); ligand concentration (+) FACS-Seq: 1 mM; higher = higher reporter protein expression; conditions: HEK293T, ligand present: yes
Outline: as §1

GCUGUCACCGGAAUACCAGCAUCGUCUUGAUGCCCUUGGAAGUCCGGUCUGAUGAGUCCCGCAUGGACGAAACAGC [CGCAU]
FACS-Seq fitted mean (log10) (theophylline [1]): 0.678 ± 0.078
normalized RNA/DNA level with ligand (log10) (theophylline [2]): 1.99 ± 0.018
normalized RNA/DNA level without ligand (log10) (theophylline [3]): 1.68 ± 0.14
FACS-Seq fitted mean (log10) (theophylline [4]): 0.776 ± 0.017

GCUGUCACCGGAAUACCAGCAUCGUCUUGAUGCCCUUGGAAGUCCGGUCUGAUGAGUCCAGCAGGGACGAAACAGC [AGCAG]
FACS-Seq fitted mean (log10) (theophylline [1]): 0.801 ± 0.041
normalized RNA/DNA level with ligand (log10) (theophylline [2]): 2.03 ± 0.12
normalized RNA/DNA level without ligand (log10) (theophylline [3]): 1.81 ± 0.027
FACS-Seq fitted mean (log10) (theophylline [4]): 0.944 ± 0.048

GCUGUCACCGGAAUACCAGCAUCGUCUUGAUGCCCUUGGAAGUCCGGUCUGAUGAGUCCAGCCGGGACGAAACAGC [AGCCG]
FACS-Seq fitted mean (log10) (theophylline [1]): 0.757 ± 0.026
normalized RNA/DNA level with ligand (log10) (theophylline [2]): 1.99 ± 0.14
normalized RNA/DNA level without ligand (log10) (theophylline [3]): 1.93 ± 0.11
FACS-Seq fitted mean (log10) (theophylline [4]): 0.782 ± 0.054

GCUGUCACCGGAAUACCAGCAUCGUCUUGAUGCCCUUGGAAGUCCGGUCUGAUGAGUCCAGCCAGGACGAAACAGC [AGCCA]
FACS-Seq fitted mean (log10) (theophylline [1]): 0.758 ± 0.027
normalized RNA/DNA level with ligand (log10) (theophylline [2]): 1.98 ± 0.038
normalized RNA/DNA level without ligand (log10) (theophylline [3]): 1.857 ± 0.0057
FACS-Seq fitted mean (log10) (theophylline [4]): 0.919 ± 0.027

GCUGUCACCGGAAUACCAGCAUCGUCUUGAUGCCCUUGGAAGUCCGGUCUGAUGAGUCCUGCACGGACGAAACAGC [UGCAC]
FACS-Seq fitted mean (log10) (theophylline [1]): 0.938 ± 0.039
normalized RNA/DNA level with ligand (log10) (theophylline [2]): 2.04 ± 0.11
normalized RNA/DNA level without ligand (log10) (theophylline [3]): 2.01 ± 0.022
FACS-Seq fitted mean (log10) (theophylline [4]): 0.991 ± 0.051

GCUGUCACCGGAAUACCAGCAUCGUCUUGAUGCCCUUGGAAGUCCGGUCUGAUGAGUCCUGCAUGGACGAAACAGC [UGCAU]
FACS-Seq fitted mean (log10) (theophylline [1]): 1.25 ± 0.16
normalized RNA/DNA level with ligand (log10) (theophylline [2]): 1.92 ± 0.078
normalized RNA/DNA level without ligand (log10) (theophylline [3]): 1.853 ± 0.018
FACS-Seq fitted mean (log10) (theophylline [4]): 1.3 ± 0.1

GCUGUCACCGGAAUACCAGCAUCGUCUUGAUGCCCUUGGAAGUCCGGUCUGAUGAGUCCUGCCCGGACGAAACAGC [UGCCC]
FACS-Seq fitted mean (log10) (theophylline [1]): 0.979 ± 0.077
normalized RNA/DNA level with ligand (log10) (theophylline [2]): 2.01 ± 0.026
normalized RNA/DNA level without ligand (log10) (theophylline [3]): 2.03 ± 0.043
FACS-Seq fitted mean (log10) (theophylline [4]): 0.875 ± 0.012

GCUGUCACCGGAAUACCAGCAUCGUCUUGAUGCCCUUGGAAGUCCGGUCUGAUGAGUCCUGCCAGGACGAAACAGC [UGCCA]
FACS-Seq fitted mean (log10) (theophylline [1]): 0.592 ± 0.11
normalized RNA/DNA level with ligand (log10) (theophylline [2]): 1.9 ± 0.096
normalized RNA/DNA level without ligand (log10) (theophylline [3]): 1.82 ± 0.068
FACS-Seq fitted mean (log10) (theophylline [4]): 0.481 ± 0.044

GCUGUCACCGGAAUACCAGCAUCGUCUUGAUGCCCUUGGAAGUCCGGUCUGAUGAGUCCCGCCCGGACGAAACAGC [CGCCC]
FACS-Seq fitted mean (log10) (theophylline [1]): 0.615 ± 0.021
normalized RNA/DNA level with ligand (log10) (theophylline [2]): 2.01 ± 0.14
normalized RNA/DNA level without ligand (log10) (theophylline [3]): 2.02 ± 0.04
FACS-Seq fitted mean (log10) (theophylline [4]): 0.725 ± 0.098
